B1: jack bean asparaginyl endopeptidase 1 (CeAEP1) (enzyme, Canavalia ensiformis (jack bean), UniProt P49046 36-475, looked up)
chain: EVGTRWAVLVAGSNGYGNYRHQADVCHAYQLLIKGGVKEENIVVFMYDDIAYNAMNPRPGVIINHPQGPDVYAGVPKDYTGEDVTPENLYAVILGDKSKVKGGSGKVINSNPEDRIFIFYSDHGGPGVLGMPNAPFVYAMDFIDVLKKKHASGGYKEMVIYIEACESGSIFEGIMPKDLNIYVTTASNAQENSFGTYCPGMNPPPPEEYVTCLGDLYSVSWMEDSETHNLKRETVQQQYQSVRKRTSNSNSYRFGSHVMQYGDTNITAEKLYLYHGFDPATVNFPPHNGNLEAKMEVVNQRDAELLFMWQMYQRSNHQPEKKTHILEQITETVKHRNHLDGSVELIGVLLYGPGKSSSVLHSVRAPGLPLVDDWTCLKSMVRVFETHCGSLTQYGMKHMRAFGNVCNSGVSKASMEEACKAACGGYDAGLLYPSNTGYSA
modifications: succinimide intermediate (SNN) modelled at Asp157

Columns and labels:
[1] = molecular target: recombinant jack bean conA precursor (pro-conA) (Canavalia ensiformis (jack bean)); assay: crystal structure
[2] = molecular target: the molecule itself; assay: crystal structure

| Molecule | stoichiometry N [1] | stoichiometry N [2] |
| --- | --- | --- |
| recombinant jack bean conA precursor (pro-conA) (natural protein) | 2 | – |
| B1 | – | 2 |

— publication doi:10.1101/2020.10.28.360099 (bioRxiv, 2020)
